Blank lines part the entries; values can stand above or below the binder they belong to.
Tests used:
[1] = target: T1, Human PD-1-His protein (Cat. #10377H08H, Sino Biological) (human, UniProt Q15116 25-167); experiment: ELISA, PD-1-His coated, HRP anti-human IgG detection
T1 construct: Bought protein; also called hPD-1-His; hu PD-1-his; not shown: His tag of the bought protein

[2] = target: T1, Human PD-1-His protein (Cat. …); experiment: SPR (Biacore), antibody captured on Protein A chip, PD-1 in flow
Description: (§1) IgG was affinity captured by using a Protein A biosensor chip (Cat. #29127556, GE). Human PD-1 antigen (Cat. #10377H08H, Sino Biological) and Cyno PD-1 antigen (purchased from Sino Biological) flowed across the surface of the chip, and the binding and dissociation curves were obtained by real time detection of PD-1 antibody and antigen PD-1 reaction signals by a Biacore T200 instrument. After the dissociation of each experimental cycle was completed, the biosensor chip was washed and regenerated with 10 mM Glycine-HCl pH 1.5 buffer. The experimental buffer system was 1×HBS-EP buffer solution (Cat #BR-1001-88, GE). After the experiment, GE Biacore T200 Evaluation version 3.0 software was used to fit the data with a (1:1) Langmuir model, and the affinity value was obtained.

[3] = target: T2, Human PD-1-IgG1Fc fusion protein (human); experiment: competition ELISA, PD-1-Fc coated, competitor biotin-labeled PD-L1
T2 construct: also called PD-1-Fc; Hu PD-1-Fc
Method: (§2) CB buffer pH 9.6 (1.59 g Na₂CO₃ and 2.93 g NaHCO₃ dissolved in 1 L distilled water) was used to dilute PD-1-Fc to 1 μg/ml, which was added to the 96-well plates at a volume of 100 μl/well and allowed to stand at 4° C. for 16 h-20 h. PBS buffer was aspirated from the 96-well plates, and the plates were washed with PBST (pH 7.4 PBS containing 0.05% tween20) buffer once. 120 μl/well PB ST/1% milk was added and incubated at room temperature for 1 h for blocking. The blocking solution was removed and the plates were washed with PBST buffer once. 90 μl anti-PD-1 antibody to be tested diluted to appropriate concentration with the sample diluent (pH 7.4 PBS containing 5% BSA, 0.05% Tween20) was added and pre-incubated at 4° C. for 1 h. […] The reaction system was removed and the plates were washed with PBST 6 times. 100 μl/well Streptavidin-Peroxidase Polymer 1:400 diluted with PBST buffer was added and incubated with shaking at room temperature for 50 min. The plates were washed with PBST 6 times. 100 μl/well TMB was added and incubated at room temperature for 5-10 min. 100 μl/well 1 M H₂SO₄ was added to stop the reaction.

[4] = target: T2, Human PD-1-IgG1Fc fusion protein; experiment: competition ELISA, PD-1-Fc coated, competitor biotin-labeled PD-L2
Method: as §2

[5] = target: T1, Human PD-1-His protein (Cat. …); experiment: SPR (Biacore T200), antibody captured on Protein A chip, antigen in flow, 1:1 Langmuir
Description: as §1

[6] = target: T3, Cyno PD-1 antigen (purchased from Sino Biological) (cynomolgus monkey (Cyno; simian), UniProt B0LAJ3 25-170); experiment: as above
T3 construct: Bought protein, construct not described; also called simian PD-1; not shown: Tag or carrier of the Sino Biological product (probably a His tag)
Description: as §1

B1: Hu23-11.IgG4AA (antibody, V domains shown)
VH: EVQLVQSGAEVKKPGSSVKVSCKASGGTFSDYEMHWVRQAPGQGLEWMGLIDPETGGTVYNQKFKDRVTITADKSTSTAYMELSSLRSEDTAVYYCARERFSYYGSTSDWYFDVWGQGTTVTVSS
VL: DIVMTQTPLSLPVTPGEPASISCRSSQSLVHSTGNTYLEWYLQKPGQSPQLLIYKVSNRFSGVPDRFSGSGSGTDFTLKISRVEAEDVGVYYCFQGSHVPYTFGGGTKVEIKR
notes: Full-length IgG4-AA, kappa; also called Hu23LCDR1 (N28T)
EC50 [1]: 0.237 µg/mL
OD value MAX [1]: 1.46 OD
Kd [2]: 2.71 nM
koff [2]: 0.000114 s⁻¹
kon [2]: 42200 M⁻¹ s⁻¹
IC50 [3]: 0.0924 µg/mL
IC50 [4]: 0.245 µg/mL
Kd [5]: 1.86 nM
koff [5]: 0.000113 s⁻¹
kon [5]: 60600 M⁻¹ s⁻¹
Kd [6]: 2.62 nM
koff [6]: 0.000126 s⁻¹
kon [6]: 47900 M⁻¹ s⁻¹

B3: H005-1 (positive control anti-PD-1 antibody, see H005-1 antibody in WO2015085847) (antibody, V domains shown)
VH: EVQLVESGGGLVQPGGSLRLSCAASGFTFSSYMMSWVRQAPGKGLEWVATISGGGANTYYPDSVKGRFTISRDNAKNSLYLQMNSLRAEDTAVYYCARQLYYFDYWGQGTTVTVSS
VL: DIQMTQSPSSLSASVGDRVTITCLASQTIGTWLTWYQQKPGKAPKLLIYTATSLADGVPSRFSGSGSGTDFTLTISSLQPEDFATYYCQQVYSIPWTFGGGTKVEIKR
EC50 [1]: 0.113 µg/mL
OD value MAX [1]: 1.21 OD
IC50 [3]: 0.11 µg/mL
IC50 [4]: 0.225 µg/mL

B4: Hu33-8.IgG4AA (antibody)
heavy: not shown
light: DIQMTQSPSSLSASVGDRVTITCRASQDINNFLNWYQQKPGGAVKLLIYYTSSLHSGVPSRFSGSGSGTDYTLTISSLQPEDFATYYCQQGNTLPWTFGGGTKVEIKRTVAAPSVFIFPPSDEQLKSGTASVVCLLNNFYPREAKVQWKVDNALQSGNSQESVTEQDSKDSTYSLSSTLTLSKADYEKHKVYACEVTHQGLSSPVTKSFNRGEC
notes: Full-length IgG4-AA, kappa
Kd [2]: 1.06 nM
koff [2]: 0.000162 s⁻¹
kon [2]: 153000 M⁻¹ s⁻¹

Further binders by falling Kd [2], results first:

EC50 [1]: 0.136 µg/mL
OD value MAX [1]: 1.26 OD
Kd [2]: 3.18 nM
koff [2]: 0.000315 s⁻¹
kon [2]: 99000 M⁻¹ s⁻¹
IC50 [3]: 0.0786 µg/mL
IC50 [4]: 0.206 µg/mL
Kd [5]: 3.25 nM
koff [5]: 0.000278 s⁻¹
kon [5]: 85600 M⁻¹ s⁻¹
Kd [6]: 4.11 nM
koff [6]: 0.000475 s⁻¹
kon [6]: 116000 M⁻¹ s⁻¹
B2: Hu32a-85.IgG4AA (antibody, V domains shown)
VH: EVQLVQSGAEVKKPGSSVKVSCKASDFTFTDYEIHWVKQAPGHGLEWIGLFDPETGGIVYNQKFKGKATLTADKSTSTAYMEFSSLRSEDTAVYYCTREGYNRDWYFDVWGQGTTVTVSS
VL: B1 VL
notes: Full-length IgG4-AA, kappa

Kd [2]: 1.09 nM
koff [2]: 0.000153 s⁻¹
kon [2]: 140000 M⁻¹ s⁻¹
B5: Hu33-9.IgG4AA (antibody)
heavy: not shown
light: B4 light
notes: Full-length IgG4-AA, kappa

— patent publication US20220098304A1 (JIANGSU HENGRUI MEDICINE, published 2022)
